The nature of the data set: yeast display, Sf9 membrane polyspecificity reagent, FACS + sequencing; frameworks hold sequencing errors. Summed up: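 Genes from sorted yeast were amplified by colony PCR, read by MiSeq 2 × 250 sequencing and filtered on CDR length. These cells carried a synthetic nanobody library in Saccharomyces cerevisiae BJ5465 and were sorted by FACS into low and high (top ~1%) gates on anti-HA and streptavidin fluorescence. Polyreactivity is labelled according to the gate of origin.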
“QVQLVESGGGLDQAGGSLRLSCAASVFIFAYYAMGWYRQAPGKERELVAAITRHGGSTYDADSVKGRFTISRDNAQNTVYLQMNSLKPEETAVYYCNAYFGWSASRQSYDYWGQGTQVTVSS”: the “polyreactivity (PSR sort gate)” value was “high polyreactivity”.

Take “QVQLVESGGGLDQAGGSLRLSCAASVSTFDAYAMVWSTQAPGQERELVAAISSSAASTSYADSVKGRFTISRDNAKNTVYVQMNSLKPEDTAFYYCAARPYRRPWYRGRYYYWGQGTQVTVSS”: the “polyreactivity (PSR sort gate)” value is “high polyreactivity”.

Consider “QVQLVESGGGLDQAGGSLRLSCAAYGSTFAPNAMGGYRQSPGKERELVAAISSGSSTYYADSVKGRFTISRDNAKNTVNLQMNSLKPEDTAVYYCIARGLSSLSTIEDYCGQGTQVTVSS”, for which the “polyreactivity (PSR sort gate)” value is “high polyreactivity”.

With “QVQLVESGGGLDQAGGSLRLSCADSGRTFYIYAMGWYRQAPGKERELVAAITSVGSTNYADSVKGRFTISRDNAKNTVYLQMNSLKPEDTAVYYCAAESTEGTSGDYDYWGQGTQVTVSS”, the “polyreactivity (PSR sort gate)” value is reported as “low polyreactivity”.

On to “QVQLVESGGGLDQAGGSLRLSCAPSGYTFNVYSMGWYRQAPGNESELVAGISSYGGSTYYADSVKGRFTISRDNAKNTVYIQMNSLKPEDTAVYYCAARSALYPKYESWGQGTQVTVSS”, for which the “polyreactivity (PSR sort gate)” value is listed as “low polyreactivity”.

As to “QVQLVESGGGLDQAGGSLRLSFAASGFIFRYYTMGWYRQAPGKERELVAVITRGGSTYYADSVKGRFTISRDNAKNTVYLQMNSLKPEDTAVYYCAADRPGTGYSDYDYWGQGTQVTVSS”, the “polyreactivity (PSR sort gate)” value is “high polyreactivity”.

On to “QVQLVESGGGLDQAGGSLRLSFAASGFTFGYYAMGWYRQEPGKARELVAAITYDGDTTYYADSVKGRITISRDNAKNTVYLQMNSLKPEDTAVYYCNRDVLTFNYDYWGQGTQVTVSS”, for which the “polyreactivity (PSR sort gate)” value is reported as “low polyreactivity”.

As for “QVQLVESGGGLDQAGGSLRLSSAASGLTFGGNAMGWYRQAPGKERELVAAISWSDDTTDYADSVKGRFTISRDNAKNTVYLQMNSLKPEDTAVYYCAARLPFEHVEYWGQGTQVTVSS”, the “polyreactivity (PSR sort gate)” value is given as “low polyreactivity”.

With “QVQLVESGGGLDQAGGSLRLSSAASVSIFRYNTMGWYRPAPGKEREFVDSIRIGGSTYYADSVKGRFTISRDNAKNTVYLQMNSLKPEDTAVYYCAVRPYRSAGGSVTRGAYYYWGQGTQVTVSS”, the “polyreactivity (PSR sort gate)” value is “high polyreactivity”.

Take “QVQLVESGGGLDQAGGSLRLSWAASGFTFKNYTMGWYRQAPGKERELVAAISKSGDITYYADSVKGRFTISRDNAKNTVYLQMNSLKPEDTAVYYCNAPRRNWSYDYWGQGTQVTVSS”: the “polyreactivity (PSR sort gate)” value is “high polyreactivity”.

Consider “QVQLVESGGGLDQAGGSLRLTCAASGRTIGSYAMGWYRQAPGKERELVAAISYSGGSTYYADSVKGRFTISRDNAKNTVYLQMNSLKPEDTAVYYCAKSWRYSIIQSYRAGYNYWGQGTQVTVSS”, for which the “polyreactivity (PSR sort gate)” value is “high polyreactivity”.

For the sequence “QVQLVESGGGLDQAGGSLRLTCAATGRIILGYAMGWYRQAPGKEREFVAANSRGGTSTYYADSVKGRFTISRDNAKNTVYLQMNSLKPEDTAVYYCAVDVPPYRLVRNYYEYDYWGQGTQVTVSS”, the “polyreactivity (PSR sort gate)” value is on record as “high polyreactivity”.

As for “QVQLVESGGGLDQAGGSLRLTWAASGSIFKFYAMGWYRQAPGKERDMVAAISQSGGRTYYADSVKGRFTISRDNAKNSVYLQMNSLKPEDTAVYYCAKSVFPVYGRPSNLWFNYWGQGTQVTVSS”, the “polyreactivity (PSR sort gate)” value was “high polyreactivity”.

For “QVQLVESGGGLDQAGGTLRLSCAASGSTFSDYAMGWYRQAPGKERQLVAAISVSDGSTYYADSVKGRFTISRDNAKNTVYFQMNSLKPEDTAVYYCAAEYPYFVYSYFRFDYWGQGTQVTVSS”, the “polyreactivity (PSR sort gate)” value is “low polyreactivity”.

Consider “QVQLVESGGGLDQAGRSLRLICAASVFTIHAYAMGRYRQAHGKERELVAAISASGGSTYYADSVKGRFTISRDNANNTVYLKMNSLKPEDTAVYYCNAGDYRTFYRRFDYWGQGTQVTVSS”, for which the “polyreactivity (PSR sort gate)” value was “low polyreactivity”.

“QVQLVESGGGLDQAGRSLRLSCAASGFIFYYNAMGWYRQAPGKQRELVAAISSGGSTNYADSVKGRFTISRDNAKNTVYLQMNSLQPEDTAVYYCAKRPTGGYKYYYTTSKYDYWGQGTQVTVSS”: the “polyreactivity (PSR sort gate)” value is “low polyreactivity”.

As to “QVQLVESGGGLDQARGTLRLSCAASGITITLYAMGWYRQTPGKESELVAAISRGGGTTNYADSVKGRFTISRDNAKNTVFLELNSLKPEDNAVYYCAAAYTIYWFSYRVLYYYWGQGTQVTVSS”, the “polyreactivity (PSR sort gate)” value is given as “low polyreactivity”.

Turning to “QVQLVESGGGLDQPGGSLRLTWAASGSTFYLYTMGWYRQAHGKERELVARISSSGSTNYADSVKGRFTISRDNAKNAVYLQMNSLKPEDTAVYYCNKDWIYRGYDYWGQATQVTVSS”, the “polyreactivity (PSR sort gate)” value was “high polyreactivity”.

“QVQLVESGGGLEQAGGSIRLNCAASGSTFRYNAMGWYRQARGKERELVAAITWSGGSTYFADSVKGRFTISRDNAKHNVYLQMNSLKAEDTAVYYCAKVYFWGALSPYKYDEDYWGQGTQVTVSS”: the “polyreactivity (PSR sort gate)” value was “low polyreactivity”.

For the sequence “QVQLVESGGGLEQAGGSLRLSCAASGRTFQYYTMGLYRQAPGKERELVAAISTGGSTHYSDSVKGRFTISRDNAKNTVYLEMFSLKPVDTAVYYCAALWSRRRSRPRFPGDFWGQGTQLTVSS”, the “polyreactivity (PSR sort gate)” value is given as “high polyreactivity”.

Consider “QVQLVESGGGLFHAGGSLRLSCAASGRTFGIYAMGGSRQAPGKERELVAAITWSGDSTYYADSVKGRFTISRDNAKNTVYLQMNRLKPEDTAVYYCAADYVGVTSVRYDYWGQGTQVTVSS”, for which the “polyreactivity (PSR sort gate)” value is “low polyreactivity”.

For “QVQLVESGGGLFHAGGSLRLSCAASGSTFAYYAMGWYIQAPGKERELVAGISGSGGSTYYADSVKGRFTISRDNAKNTVYLQMKSLKPEDNAVYYCAVVQRSKRTYPWYDYWGQGTQVTVCS”, the “polyreactivity (PSR sort gate)” value is “low polyreactivity”.

“QVQLVESGGGLFKAGGSLRLSCAASGSTLVTYAKGWYRQAPGKERELVAAISWRGGSTYYADSVKGRYTISRDNAKNTVYLQMNSLKPEDTEVYYCNKMRAYKESETYYFWGQGTQVTVSS”: the “polyreactivity (PSR sort gate)” value was “low polyreactivity”.

In the case of “QVQLVESGGGLFLAGGSLRLSCAAAGSTFVTNDMGWYRQAPGKERELVAAISVGGRTSYADSVKGRFTISRDNAKNTVYLQMNSLKPEDTAVYYCAAQYRYTYWGQGTQVTVSS”, the “polyreactivity (PSR sort gate)” value is “low polyreactivity”.

As for “QVQLVESGGGLFLAGGSLRLSCAASGSTFWYNMGWYRQAPGKDRELVAAISNSSGRTYYADSVKGRCTISRDNPKNTDYLQMKSLKPEDTAVYYSAADPKLGSRTGFYYWGQGTQVTVSS”, the “polyreactivity (PSR sort gate)” value is on record as “high polyreactivity”.

As for “QVQLVESGGGLFQAGGILILSFAASGNTLNYYTMGWYRQAPGKERELVAAISSSGGSTYYAESVKGSFTISRDYAKNTVYLHMNRLKPEDNAVYFCNDSVINEMNNWGQGTQVTVSS”, the “polyreactivity (PSR sort gate)” value was “low polyreactivity”.

With “QVQLVESGGGLFQAGGILRLTCAASGLTIYDYAMRWSRQAPAKERELVAANTRSAGSTYYADSVKGRFTISRDYAKYTVYLLMNSLKPEDTAVYYCAARGKIRYQGYYGSDQYYYWGQGTQVSVSS”, the “polyreactivity (PSR sort gate)” value is reported as “high polyreactivity”.

Take “QVQLVESGGGLFQAGGRLRLSCAASGSTFGYNAMGWYREAPGKERELVAAISYSSGSTYYADSVKGRFTISRDNAKNTVYLQMNSLKPEDTAVYYCAVVSRASRRGGRYDYWGQGTQVTVSS”: the “polyreactivity (PSR sort gate)” value is recorded as “high polyreactivity”.

As to “QVQLVESGGGLFQAGGSIRLSCAASGRISEGYAMGWYIQAPGKERELVAAITSSTASTYYADSVKGRFTISRDNAKNTVYLQMNSLKPEDTAVYYCNADYGLYPEDYDYWGQGTQVTVSS”, the “polyreactivity (PSR sort gate)” value is given as “low polyreactivity”.

“QVQLVESGGGLFQAGGSLRISCAASGSTFYHNFMGWYRQAPGKERELVARITSTDSTYYEDSVKGRFTISGDNAKNTVYLQMNSLKPEYTAVSYCAASWWSPYDYWGQATQVTVSS”: the “polyreactivity (PSR sort gate)” value was “low polyreactivity”.

Consider “QVQLVESGGGLFQAGGSLRISCAPSGFISHFYAMAWYRHAPGKEREFVARISYSVGSTYYADSVKGRFTISRDNAKNTVYVQMNSLKPEDTAVYDCNAGPQYDVHEYYYWGQGTQVTGSS”, for which the “polyreactivity (PSR sort gate)” value is recorded as “low polyreactivity”.

Turning to “QVQLVESGGGLFQAGGSLRLRWAASGNTFRYYVMGWYRQAPGKERELVADINWSGGRTYYADSVKWGFTISRDNAKNTVYFQMNSLKPEDTAVFYCNAARKLYRYSYDYWGQGTQVTLSS”, the “polyreactivity (PSR sort gate)” value is reported as “high polyreactivity”.

Take “QVQLVESGGGLFQAGGSLRLSCAASGFIFFPYTMGWYRQAPGKERELVAAITNGGSTSYADSVKGRFTISRDNAKNTVYLQMNSLKPEDTAVYYCAADLGRNLLHTYYYWGQGTQVTVSS”: the “polyreactivity (PSR sort gate)” value was “low polyreactivity”.

With “QVQLVESGGGLFQAGGSLRLSCAASGFIFQYYDMGWYRQAPGKERELVAAINYSGGNTYYADSVKGRFTISRDNAKNTVYLQLNILKPEDSEVFYCAAAPSVSCTRLYEYWGQGTQVTVSS”, the “polyreactivity (PSR sort gate)” value is given as “high polyreactivity”.

As for “QVQLVESGGGLFQAGGSLRLSCAASGFTFSFNTMGWYRQAPVKERELVAAIRNNGGGTNYADSVKGRFTISRDKAMNTVYLQMNSLKPEDTAVYYCAADRIYAWFGRLYYWGQGTQVTGSS”, the “polyreactivity (PSR sort gate)” value is given as “low polyreactivity”.

Regarding “QVQLVESGGGLFQAGGSLRLSCAASGFTIFLNAMGWYRQAPGKERELVAAITVSGSSTYYADSVKGRFTISRDNAKNTVYLQMNSLKPEDTAVYYCNAEIYSPYYTYDYWGQGTQVTVSS”, the “polyreactivity (PSR sort gate)” value is recorded as “low polyreactivity”.

Take “QVQLVESGGGLFQAGGSLRLSCAASGIIFPYYVMGWSRQAPGTEREFVATISWSGGRTYYADSVKGRFTISRDNAKNTVYFQMNSLKPEDTAVYYCAAAKHYYNGYGYWGQGTQVTVSS”: the “polyreactivity (PSR sort gate)” value was “high polyreactivity”.

Regarding “QVQLVESGGGLFQAGGSLRLSCAASGITLYLYVMGWYRQAPGIEREFVAAIRWSGGSTYYADSVKGRFTISRDNAKYTVYLLMNSLKPEDTAVYYCAVTYVGHVYEYYYWGQGTQVTVSS”, the “polyreactivity (PSR sort gate)” value is recorded as “low polyreactivity”.

With “QVQLVESGGGLFQAGGSLRLSCAASGLIFSSNAMGWYRQAPGKERELVATISWSGGSTYYADSVKGRFTISRDKAKNNVYLQMNSQKPEDTAVYYCAAAQRWSFLHYYYYWGQGTQVTVSS”, the “polyreactivity (PSR sort gate)” value is on record as “high polyreactivity”.

With “QVQLVESGGGLFQAGGSLRLSCAASGLTFYIYAMGWYRQAPGKEREFVAAIRRSGGRTYYADSVKGRFTISRDNAKNTVYLQMNSLKPEDTAVYYCNRYTQYRDRSDNHWGQGTQVTVSS”, the “polyreactivity (PSR sort gate)” value was “high polyreactivity”.

In the case of “QVQLVESGGGLFQAGGSLRLSCAASGNTFPYYAMGWYRQAPVKERELVAAISRSGGTTYYADSVKGRFTISRDNAKNTVYLQMTSLKPEDTAVYYCAALYGSRSTYHMDDYWGQGSQVTVSS”, the “polyreactivity (PSR sort gate)” value was “high polyreactivity”.

These data come from the nanobody polyreactivity screen of Harvey et al. (2022).
